# Data as given in PMC9482650, “Quantitative fragmentomics allow affinity mapping of interactomes” (Nature Communications, 2022).
# T1: SNTB1, Q13884
# T1 sequence (Q13884 107-205, limits assumed, looked up): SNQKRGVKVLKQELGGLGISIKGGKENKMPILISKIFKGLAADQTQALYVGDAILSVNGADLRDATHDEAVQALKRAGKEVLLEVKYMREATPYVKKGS
# T2: GRIP1_3, Q9Y3R0
# T2 sequence (Q9Y3R0 247-346, limits assumed, looked up): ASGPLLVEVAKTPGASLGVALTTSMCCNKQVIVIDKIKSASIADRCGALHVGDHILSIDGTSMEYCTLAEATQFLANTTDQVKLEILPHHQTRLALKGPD
# T3: PDZRN3_1, Q9UPQ7
# T3 sequence (Q9UPQ7 244-349, limits assumed, looked up): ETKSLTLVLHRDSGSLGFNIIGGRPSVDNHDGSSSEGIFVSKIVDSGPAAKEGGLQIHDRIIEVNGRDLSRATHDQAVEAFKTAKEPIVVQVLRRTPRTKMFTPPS
# T4: RADIL, Q96JH8
# T4 sequence (Q96JH8 971-1071, limits assumed, looked up): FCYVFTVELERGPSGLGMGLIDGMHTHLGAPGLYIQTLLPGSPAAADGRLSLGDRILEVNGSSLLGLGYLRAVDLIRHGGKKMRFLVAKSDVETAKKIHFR
# T5: APBA2_2, Q99767
# T5 sequence (Q99767 654-744, limits assumed, looked up): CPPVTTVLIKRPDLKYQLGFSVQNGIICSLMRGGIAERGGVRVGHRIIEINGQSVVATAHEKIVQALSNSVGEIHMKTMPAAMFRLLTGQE
# T6: TX1BP3, O14907
# T6 sequence (O14907 10-122, limits assumed, looked up): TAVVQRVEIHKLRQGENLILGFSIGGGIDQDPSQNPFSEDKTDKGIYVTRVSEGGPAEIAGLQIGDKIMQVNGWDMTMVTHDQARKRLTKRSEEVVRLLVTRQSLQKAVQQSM
# T7: GRIP1_5, Q9Y3R0
# T7 sequence (Q9Y3R0 568-668, limits assumed, looked up): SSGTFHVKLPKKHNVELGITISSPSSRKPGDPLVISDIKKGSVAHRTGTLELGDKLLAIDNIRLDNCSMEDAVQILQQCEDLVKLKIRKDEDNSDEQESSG
# Target: MAGI1_1, Q96QZ7
# Sequence (Q96QZ7 1-106): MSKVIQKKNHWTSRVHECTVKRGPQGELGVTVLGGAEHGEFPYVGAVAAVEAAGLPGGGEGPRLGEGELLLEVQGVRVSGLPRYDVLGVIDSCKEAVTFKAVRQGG
# Assay: holdup assay
# Design: key: below the threshold = too weak to quantify, mostly under pKd 3.1 to 4
# Details: plain residues with an end cap or a label only (N-terminal biotin on a linker: ado-ado)
row,Binder,pKd
1,"DDEDRLVIEI [ZNF831, Q5JPB2]",below the threshold
2,"PKRSFIESNV [TANC1, Q9C0D5]",below the threshold

# Target: Inadl_1, Q8NI35
# Sequence (Q8NI35 113-229): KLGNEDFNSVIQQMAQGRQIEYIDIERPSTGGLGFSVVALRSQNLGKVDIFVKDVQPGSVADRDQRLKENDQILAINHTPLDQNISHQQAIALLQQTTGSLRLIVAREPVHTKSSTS
# Assay: holdup assay
# Design: key: below the threshold = too weak to quantify, mostly under pKd 3.1 to 4
# Details: plain residues with an end cap or a label only (N-terminal biotin on a linker: ado-ado)
row,Binder,pKd
1,"DDEDRLVIEI [ZNF831, Q5JPB2]",3.64
2,"PKRSFIESNV [TANC1, Q9C0D5]",below the threshold

# Target: GORASP1, Q9BQQ3
# Sequence (Q9BQQ3 1-208): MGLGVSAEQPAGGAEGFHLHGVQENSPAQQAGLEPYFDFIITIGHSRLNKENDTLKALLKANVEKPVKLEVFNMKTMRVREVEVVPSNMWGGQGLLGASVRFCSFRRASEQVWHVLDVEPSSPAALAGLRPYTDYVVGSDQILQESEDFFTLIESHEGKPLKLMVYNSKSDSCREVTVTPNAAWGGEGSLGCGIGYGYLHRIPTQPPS
# Assay: holdup assay
# Design: key: below the threshold = too weak to quantify, mostly under pKd 3.1 to 4
# Details: plain residues with an end cap or a label only (N-terminal biotin on a linker: ado-ado)
row,Binder,pKd
1,"DDEDRLVIEI [ZNF831, Q5JPB2]",4.12
2,"PKRSFIESNV [TANC1, Q9C0D5]",below the threshold

# Target: SNX27, Q96L92
# Assay: holdup assay
# Design: key: below the threshold = too weak to quantify, mostly under pKd 3.1 to 4
# Details: plain residues with an end cap or a label only (N-terminal biotin on a linker: ado-ado)
row,Binder,pKd
1,"DDEDRLVIEI [ZNF831, Q5JPB2]",below the threshold
2,"PKRSFIESNV [TANC1, Q9C0D5]",5.51

# Target: SCRIB_3, Q14160
# Sequence (Q14160 999-1103): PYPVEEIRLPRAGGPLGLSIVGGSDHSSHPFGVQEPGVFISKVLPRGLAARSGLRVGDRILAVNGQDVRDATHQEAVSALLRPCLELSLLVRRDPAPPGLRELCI
# Assay: holdup assay
# Design: key: below the threshold = too weak to quantify, mostly under pKd 3.1 to 4
# Details: plain residues with an end cap or a label only (N-terminal biotin on a linker: ado-ado)
row,Binder,pKd
1,"DDEDRLVIEI [ZNF831, Q5JPB2]",3.48
2,"PKRSFIESNV [TANC1, Q9C0D5]",5.05

# Target: IL16_4, Q14005
# Sequence (Q14005 1229-1329): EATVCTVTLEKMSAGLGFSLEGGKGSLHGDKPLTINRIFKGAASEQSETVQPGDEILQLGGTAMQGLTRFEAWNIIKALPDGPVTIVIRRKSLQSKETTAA
# Assay: holdup assay
# Design: key: below the threshold = too weak to quantify, mostly under pKd 3.1 to 4
# Details: plain residues with an end cap or a label only (N-terminal biotin on a linker: ado-ado)
row,Binder,pKd
1,"DDEDRLVIEI [ZNF831, Q5JPB2]",3.77
2,"PKRSFIESNV [TANC1, Q9C0D5]",below the threshold

# Target: PDZRN4_1, Q6ZMN7
# Sequence (Q6ZMN7 213-318): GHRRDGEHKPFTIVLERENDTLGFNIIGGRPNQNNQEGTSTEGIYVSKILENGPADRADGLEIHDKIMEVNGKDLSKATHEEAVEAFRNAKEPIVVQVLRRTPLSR
# Assay: holdup assay
# Design: key: below the threshold = too weak to quantify, mostly under pKd 3.1 to 4
# Details: plain residues with an end cap or a label only (N-terminal biotin on a linker: ado-ado)
row,Binder,pKd
1,"DDEDRLVIEI [ZNF831, Q5JPB2]",below the threshold
2,"PKRSFIESNV [TANC1, Q9C0D5]",3.82

# Target: T1, SNTB1, Q13884
# Assay: holdup assay
# Design: key: below the threshold = too weak to quantify, mostly under pKd 3.1 to 4
# Details: plain residues with an end cap or a label only (N-terminal biotin on a linker: ado-ado)
row,Binder,pKd
1,"DDEDRLVIEI [ZNF831, Q5JPB2]",below the threshold
2,"PKRSFIESNV [TANC1, Q9C0D5]",5

# Target: LNX1_3, Q8TBB1
# Sequence (Q8TBB1 500-596): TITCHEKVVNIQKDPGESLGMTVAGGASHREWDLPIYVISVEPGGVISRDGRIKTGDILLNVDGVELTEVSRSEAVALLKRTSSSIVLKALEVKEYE
# Assay: holdup assay
# Design: key: below the threshold = too weak to quantify, mostly under pKd 3.1 to 4
# Details: plain residues with an end cap or a label only (N-terminal biotin on a linker: ado-ado)
row,Binder,pKd
1,"DDEDRLVIEI [ZNF831, Q5JPB2]",below the threshold
2,"PKRSFIESNV [TANC1, Q9C0D5]",below the threshold

# Target: DLG4_2, P78352
# Sequence (P78352 155-259): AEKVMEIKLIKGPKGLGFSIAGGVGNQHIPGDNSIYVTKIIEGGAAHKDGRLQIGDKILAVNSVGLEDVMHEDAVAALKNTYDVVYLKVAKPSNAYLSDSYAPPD
# Assay: holdup assay
# Design: key: below the threshold = too weak to quantify, mostly under pKd 3.1 to 4
# Details: plain residues with an end cap or a label only (N-terminal biotin on a linker: ado-ado)
row,Binder,pKd
1,"DDEDRLVIEI [ZNF831, Q5JPB2]",below the threshold
2,"PKRSFIESNV [TANC1, Q9C0D5]",5.04

# Target: T2, GRIP1_3, Q9Y3R0
# Assay: holdup assay
# Design: key: below the threshold = too weak to quantify, mostly under pKd 3.1 to 4
# Details: plain residues with an end cap or a label only (N-terminal biotin on a linker: ado-ado)
row,Binder,pKd
1,"DDEDRLVIEI [ZNF831, Q5JPB2]",below the threshold
2,"PKRSFIESNV [TANC1, Q9C0D5]",below the threshold

# Target: DLG4_3, P78352
# Sequence (P78352 306-403): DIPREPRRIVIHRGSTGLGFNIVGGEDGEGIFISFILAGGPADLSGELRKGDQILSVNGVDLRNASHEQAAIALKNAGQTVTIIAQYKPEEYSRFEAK
# Assay: holdup assay
# Design: key: below the threshold = too weak to quantify, mostly under pKd 3.1 to 4
# Details: plain residues with an end cap or a label only (N-terminal biotin on a linker: ado-ado)
row,Binder,pKd
1,"DDEDRLVIEI [ZNF831, Q5JPB2]",below the threshold
2,"PKRSFIESNV [TANC1, Q9C0D5]",4.27

# Target: FRMPD4, Q14CM0
# Sequence (Q14CM0 67-160): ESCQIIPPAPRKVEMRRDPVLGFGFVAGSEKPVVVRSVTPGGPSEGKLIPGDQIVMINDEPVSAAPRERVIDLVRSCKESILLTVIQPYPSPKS
# Assay: holdup assay
# Design: key: below the threshold = too weak to quantify, mostly under pKd 3.1 to 4
# Details: plain residues with an end cap or a label only (N-terminal biotin on a linker: ado-ado)
row,Binder,pKd
1,"DDEDRLVIEI [ZNF831, Q5JPB2]",below the threshold
2,"PKRSFIESNV [TANC1, Q9C0D5]",below the threshold

# Target: SCRIB_2, Q14160
# Sequence (Q14160 857-960): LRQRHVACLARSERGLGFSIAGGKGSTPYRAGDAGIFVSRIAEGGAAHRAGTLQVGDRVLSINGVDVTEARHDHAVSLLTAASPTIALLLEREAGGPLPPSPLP
# Assay: holdup assay
# Design: key: below the threshold = too weak to quantify, mostly under pKd 3.1 to 4
# Details: plain residues with an end cap or a label only (N-terminal biotin on a linker: ado-ado)
row,Binder,pKd
1,"DDEDRLVIEI [ZNF831, Q5JPB2]",below the threshold
2,"PKRSFIESNV [TANC1, Q9C0D5]",4.88

# Target: T3, PDZRN3_1, Q9UPQ7
# Assay: holdup assay
# Design: key: below the threshold = too weak to quantify, mostly under pKd 3.1 to 4
# Details: plain residues with an end cap or a label only (N-terminal biotin on a linker: ado-ado)
row,Binder,pKd
1,"DDEDRLVIEI [ZNF831, Q5JPB2]",below the threshold
2,"PKRSFIESNV [TANC1, Q9C0D5]",3.87

# Target: CASK, O14936
# Sequence (O14936 487-570): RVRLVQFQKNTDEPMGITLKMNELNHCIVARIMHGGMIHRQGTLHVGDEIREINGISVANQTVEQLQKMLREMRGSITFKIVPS
# Assay: holdup assay
# Design: key: below the threshold = too weak to quantify, mostly under pKd 3.1 to 4
# Details: plain residues with an end cap or a label only (N-terminal biotin on a linker: ado-ado)
row,Binder,pKd
1,"DDEDRLVIEI [ZNF831, Q5JPB2]",below the threshold
2,"PKRSFIESNV [TANC1, Q9C0D5]",below the threshold

# Target: MAGI2_6, Q86UL8
# Sequence (Q86UL8 1141-1229): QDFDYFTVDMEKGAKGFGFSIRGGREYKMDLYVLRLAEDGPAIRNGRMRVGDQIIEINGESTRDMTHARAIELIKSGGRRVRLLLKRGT
# Assay: holdup assay
# Design: key: below the threshold = too weak to quantify, mostly under pKd 3.1 to 4
# Details: plain residues with an end cap or a label only (N-terminal biotin on a linker: ado-ado)
row,Binder,pKd
1,"DDEDRLVIEI [ZNF831, Q5JPB2]",below the threshold
2,"PKRSFIESNV [TANC1, Q9C0D5]",4.09

# Target: GRIP2_4, Q9C0E4
# Sequence (Q9C0E4 446-548): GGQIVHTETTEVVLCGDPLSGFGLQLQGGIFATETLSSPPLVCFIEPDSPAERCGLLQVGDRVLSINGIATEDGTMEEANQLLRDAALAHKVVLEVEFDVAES
# Assay: holdup assay
# Design: key: below the threshold = too weak to quantify, mostly under pKd 3.1 to 4
# Details: plain residues with an end cap or a label only (N-terminal biotin on a linker: ado-ado)
row,Binder,pKd
1,"DDEDRLVIEI [ZNF831, Q5JPB2]",below the threshold
2,"PKRSFIESNV [TANC1, Q9C0D5]",below the threshold

# Target: FRMPD3, Q5JV73
# Sequence (Q5JV73 12-100): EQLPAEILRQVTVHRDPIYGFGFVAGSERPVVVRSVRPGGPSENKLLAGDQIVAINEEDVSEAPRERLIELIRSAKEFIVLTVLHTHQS
# Assay: holdup assay
# Design: key: below the threshold = too weak to quantify, mostly under pKd 3.1 to 4
# Details: plain residues with an end cap or a label only (N-terminal biotin on a linker: ado-ado)
row,Binder,pKd
1,"DDEDRLVIEI [ZNF831, Q5JPB2]",below the threshold
2,"PKRSFIESNV [TANC1, Q9C0D5]",below the threshold

# Target: MAGI2_5, Q86UL8
# Sequence (Q86UL8 915-1017): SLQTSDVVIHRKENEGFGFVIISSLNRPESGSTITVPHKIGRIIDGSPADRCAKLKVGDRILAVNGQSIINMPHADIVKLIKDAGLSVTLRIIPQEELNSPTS
# Assay: holdup assay
# Design: key: below the threshold = too weak to quantify, mostly under pKd 3.1 to 4
# Details: plain residues with an end cap or a label only (N-terminal biotin on a linker: ado-ado)
row,Binder,pKd
1,"DDEDRLVIEI [ZNF831, Q5JPB2]",below the threshold
2,"PKRSFIESNV [TANC1, Q9C0D5]",4.41

# Target: LNX1_2, Q8TBB1
# Sequence (Q8TBB1 371-470): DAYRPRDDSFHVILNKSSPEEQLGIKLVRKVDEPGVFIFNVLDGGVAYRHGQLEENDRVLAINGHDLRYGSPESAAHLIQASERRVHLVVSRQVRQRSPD
# Assay: holdup assay
# Design: key: below the threshold = too weak to quantify, mostly under pKd 3.1 to 4
# Details: plain residues with an end cap or a label only (N-terminal biotin on a linker: ado-ado)
row,Binder,pKd
1,"DDEDRLVIEI [ZNF831, Q5JPB2]",below the threshold
2,"PKRSFIESNV [TANC1, Q9C0D5]",below the threshold

# Target: MAGI1_2, Q96QZ7
# Sequence (Q96QZ7 456-580): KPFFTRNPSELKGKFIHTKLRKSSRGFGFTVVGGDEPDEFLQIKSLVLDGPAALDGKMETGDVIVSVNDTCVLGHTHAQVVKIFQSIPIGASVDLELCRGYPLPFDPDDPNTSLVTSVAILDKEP
# Assay: holdup assay
# Design: key: below the threshold = too weak to quantify, mostly under pKd 3.1 to 4
# Details: plain residues with an end cap or a label only (N-terminal biotin on a linker: ado-ado)
row,Binder,pKd
1,"DDEDRLVIEI [ZNF831, Q5JPB2]",below the threshold
2,"PKRSFIESNV [TANC1, Q9C0D5]",4.37

# Target: GRIP2_7, Q9C0E4
# Sequence (Q9C0E4 934-1023): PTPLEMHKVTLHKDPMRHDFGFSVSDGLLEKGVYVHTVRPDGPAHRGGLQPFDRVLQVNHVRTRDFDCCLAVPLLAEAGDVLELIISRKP
# Assay: holdup assay
# Design: key: below the threshold = too weak to quantify, mostly under pKd 3.1 to 4
# Details: plain residues with an end cap or a label only (N-terminal biotin on a linker: ado-ado)
row,Binder,pKd
1,"DDEDRLVIEI [ZNF831, Q5JPB2]",below the threshold
2,"PKRSFIESNV [TANC1, Q9C0D5]",below the threshold

# Target: Inadl_6, Q8NI35
# Sequence (Q8NI35 1058-1167): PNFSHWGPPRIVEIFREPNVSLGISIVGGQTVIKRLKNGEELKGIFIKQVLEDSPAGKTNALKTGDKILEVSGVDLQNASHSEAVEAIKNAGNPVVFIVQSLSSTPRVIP
# Assay: holdup assay
# Design: key: below the threshold = too weak to quantify, mostly under pKd 3.1 to 4
# Details: plain residues with an end cap or a label only (N-terminal biotin on a linker: ado-ado)
row,Binder,pKd
1,"DDEDRLVIEI [ZNF831, Q5JPB2]",below the threshold
2,"PKRSFIESNV [TANC1, Q9C0D5]",below the threshold

# Target: T4, RADIL, Q96JH8
# Assay: holdup assay
# Design: key: below the threshold = too weak to quantify, mostly under pKd 3.1 to 4
# Details: plain residues with an end cap or a label only (N-terminal biotin on a linker: ado-ado)
row,Binder,pKd
1,"DDEDRLVIEI [ZNF831, Q5JPB2]",4.02
2,"PKRSFIESNV [TANC1, Q9C0D5]",3.67

# Target: T5, APBA2_2, Q99767
# Assay: holdup assay
# Design: key: below the threshold = too weak to quantify, mostly under pKd 3.1 to 4
# Details: plain residues with an end cap or a label only (N-terminal biotin on a linker: ado-ado)
row,Binder,pKd
1,"DDEDRLVIEI [ZNF831, Q5JPB2]",below the threshold
2,"PKRSFIESNV [TANC1, Q9C0D5]",below the threshold

# Target: T6, TX1BP3, O14907
# Assay: holdup assay
# Design: key: below the threshold = too weak to quantify, mostly under pKd 3.1 to 4
# Details: plain residues with an end cap or a label only (N-terminal biotin on a linker: ado-ado)
row,Binder,pKd
1,"DDEDRLVIEI [ZNF831, Q5JPB2]",below the threshold
2,"PKRSFIESNV [TANC1, Q9C0D5]",5.72

# Target: T7, GRIP1_5, Q9Y3R0
# Assay: holdup assay
# Design: key: below the threshold = too weak to quantify, mostly under pKd 3.1 to 4
# Details: plain residues with an end cap or a label only (N-terminal biotin on a linker: ado-ado)
row,Binder,pKd
1,"DDEDRLVIEI [ZNF831, Q5JPB2]",below the threshold
2,"PKRSFIESNV [TANC1, Q9C0D5]",below the threshold

# Target: PICK1, Q9NRD5
# Sequence (Q9NRD5 17-115): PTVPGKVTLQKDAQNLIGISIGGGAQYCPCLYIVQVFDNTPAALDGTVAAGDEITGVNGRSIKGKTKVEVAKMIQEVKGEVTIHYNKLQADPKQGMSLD
# Assay: holdup assay
# Design: key: below the threshold = too weak to quantify, mostly under pKd 3.1 to 4
# Details: plain residues with an end cap or a label only (N-terminal biotin on a linker: ado-ado)
row,Binder,pKd
1,"DDEDRLVIEI [ZNF831, Q5JPB2]",below the threshold
2,"PKRSFIESNV [TANC1, Q9C0D5]",4.14

# Target: LNX1_1, Q8TBB1
# Sequence (Q8TBB1 261-371): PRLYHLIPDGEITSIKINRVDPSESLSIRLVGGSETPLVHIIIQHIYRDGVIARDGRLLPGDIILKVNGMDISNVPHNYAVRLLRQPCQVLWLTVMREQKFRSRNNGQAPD
# Assay: holdup assay
# Design: key: below the threshold = too weak to quantify, mostly under pKd 3.1 to 4
# Details: plain residues with an end cap or a label only (N-terminal biotin on a linker: ado-ado)
row,Binder,pKd
1,"DDEDRLVIEI [ZNF831, Q5JPB2]",below the threshold
2,"PKRSFIESNV [TANC1, Q9C0D5]",4.08
